The source of these data is paper PMC12148371 (iScience, 2025).

The test deals with EBOV-GP-RBD without the glycan cap and MLD, displayed on the cell surface (EGPdcm, wild type) (Zaire ebolavirus). The experiment in a line: flow cytometry on cells. A general note: Flow cytometry measures light scatter and fluorescence of single cells or particles in a stream.

In the case of “NPC1-His (from UniProt O15118 23-1278) (receptor)”, the percent NPC1 binding (positive cells) amounted to 94.7% and the percent NPC1 binding (positive cells), without competitor was determined as 76.4%.
